T1: PHA.L, lectin from Phaseolus vulgaris (Phaseolus vulgaris, UniProt P05087 21-272)
T1 construct: Lectin coated on the plate
T1 sequence (looked up): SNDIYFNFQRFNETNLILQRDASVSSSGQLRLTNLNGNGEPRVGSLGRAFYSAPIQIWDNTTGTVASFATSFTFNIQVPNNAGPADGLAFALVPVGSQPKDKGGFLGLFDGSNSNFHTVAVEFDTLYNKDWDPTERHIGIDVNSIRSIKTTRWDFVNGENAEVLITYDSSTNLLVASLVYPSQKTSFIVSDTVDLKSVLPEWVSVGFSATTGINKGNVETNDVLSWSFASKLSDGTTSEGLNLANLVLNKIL

T2: UEA.I, lectin from Ulex europeus (Ulex europeus, UniProt P22972 1-243)
T2 construct: Lectin coated on the plate
T2 sequence (looked up): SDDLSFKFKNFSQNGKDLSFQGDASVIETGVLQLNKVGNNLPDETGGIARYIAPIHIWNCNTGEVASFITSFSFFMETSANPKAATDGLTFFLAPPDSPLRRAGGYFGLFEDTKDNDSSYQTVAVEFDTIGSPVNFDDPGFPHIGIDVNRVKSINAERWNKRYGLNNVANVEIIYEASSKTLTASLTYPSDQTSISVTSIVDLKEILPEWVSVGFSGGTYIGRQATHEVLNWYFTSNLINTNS

B1: purified CHO-derived recombinant human IL-7 (highly glycosylated / hyperglycosylated hIL-7) (ligand)
chain: DCDIEGKDGKQYESVLMVSIDQLLDSMKEIGSNCLNNEFNFFKRHICDANKEGMFLFRAARKLRQFLKMNSTGDFDLHLLKVSEGTTILLNCTGQVKGRKPAALGEAQPTKSLEENKSLKEQKKLNDLCFLKRLLQEIKTCWNKILMGTKEH
modifications: complex N-linked oligosaccharides at Asn 70, 91 and 116; O-glycan at Thr 110; batch is a mixture of fully and partially glycosylated proteins
notes: also called CHO-derived hIL-7; purified IL-7 protein

Experiments:
Test in all cases: lectin-coated plate ELISA; bound IL-7 shown by biotinylated anti-hIL-7 antibody and streptavidin-peroxidase
[1] = molecular target: T1, PHA.L, lectin from Phaseolus vulgaris
Description: (§1) An array of lectins having affinity for N- and O-glycan structures was selected and used to coat 96 well microplates. Identical amounts of recombinant purified IL-7 preparations were incubated into lectin coated microplate wells. During this step, according to the affinity of a given lectin to the glycan decoration of IL-7, different amount of IL-7 were kept bound to the lectin. Revelation was conducted by incubating an IL-7 specific antibody coupled to Biotin.
(§2) Eight different lectins were used to characterize the IL-7 purified samples. Each lectin specifically recognizes sugar moieties.

[2] = molecular target: T2, UEA.I, lectin from Ulex europeus
Description: as §1, §2

[3] = molecular target: B1
Description: as §1, §2

| Binder | binding result [1] | binding result [2] | binding result [3] |
| --- | --- | --- | --- |
| B1 | binds | binds | – |
| ABA, lectin from Agaricus bisporus (other, UniProt Q00022 2-143, looked up, Lectin coated on the plate) TYTISIRVYQTTPKGFFRPVERTNWKYANGGTWDEVRGEYVLTMGGSGTSGSLRFVSSDTDESFVATFGVHNYKRWCDIVTNLTNEQTALVINQEYYGVPIRDQARENQLTSYNVANAKGRRFAIEYTVTEGDNLKANLIIG | – | – | binds |

Reference: patent US20080206190A1 (CYTHERIS, published 2008)
